Values of other authors as cited in article PMC10680782.

Biological target: VE-cadherin (Homo sapiens) (UniProt P33151)
UniProt P33151, sequence (P33151 48-599): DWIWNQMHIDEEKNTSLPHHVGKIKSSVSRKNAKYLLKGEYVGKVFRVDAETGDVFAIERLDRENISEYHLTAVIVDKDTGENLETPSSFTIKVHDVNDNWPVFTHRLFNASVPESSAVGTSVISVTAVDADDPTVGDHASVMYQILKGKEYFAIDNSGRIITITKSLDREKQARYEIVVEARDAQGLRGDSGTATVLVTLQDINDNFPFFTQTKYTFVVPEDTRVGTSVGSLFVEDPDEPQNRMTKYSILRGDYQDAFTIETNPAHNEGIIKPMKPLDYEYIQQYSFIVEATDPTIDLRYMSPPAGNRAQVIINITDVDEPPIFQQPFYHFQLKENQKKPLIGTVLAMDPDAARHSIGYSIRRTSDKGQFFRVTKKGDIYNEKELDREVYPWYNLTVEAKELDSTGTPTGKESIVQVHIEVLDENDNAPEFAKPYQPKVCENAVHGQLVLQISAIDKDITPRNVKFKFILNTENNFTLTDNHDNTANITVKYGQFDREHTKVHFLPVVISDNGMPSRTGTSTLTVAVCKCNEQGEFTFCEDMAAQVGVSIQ

Kd: 267 µM
Substance: fibrin β15-42 fragment 15-42 (from UniProt P02675)
